What was measured:
[1] = target: human chimeric IL-15 (huIL-15 + huIgHG2 chimera; IL-2SP-N72DIL-15CDS-K322AIgHg2) (human); assay: non-reducing SDS-PAGE; purified chimeric IL-15 loaded on SDS-PAGE under non-reducing or reducing conditions, Coomassie stain, densitometry of dimer vs. monomer
[2] = target: human chimeric IL-15 (huIL-15 + huIgHG2 chimera; IL-2SP-N72DIL-15CDS-K322AIgHg2) (human); assay: SEC; analytical size-exclusion HPLC, Zorbax Bio Series GF-250 column, PBS mobile phase, 1 ml/min; 20 µl of 1 μg/ml chimeric IL-15; OVA and BSA as standards
[3] = target: the molecule itself; assay: non-reducing SDS-PAGE; purified chimeric IL-15 loaded on SDS-PAGE under non-reducing or reducing conditions, Coomassie stain, densitometry of dimer vs. monomer

“human chimeric IL-15 (huIL-15 + huIgHG2 chimera; IL-2SP-N72DIL-15CDS-K322AIgHg2) (Fc fusion)” gave a stoichiometry N [1] of 2 and a stoichiometry N [2] of 2.

B1: mouse chimeric IL-15 (mIL-15 + mIgHG2a chimera) (Fc fusion)
chain: GIHVFILGCVSVGLPKTEANWIDVRYDLEKIESLIQSIHIDTTLYTDSDFHPSCKVTAMNCFLLELQVILHEYSNMTLNETVRNVLYLANSTLSSNKNVAESGCKECEELEEKTFTEFLQSFIRIVQMFINTSGSAKTTAPSVYPLAPVCGDTTGSSVTLGCLVKGYFPEPVTLTWNSGSLSSGVHTFPAVLQSDLYTLSSSVTVTSSTWPSQSITCNVAHPASSTKVDKKIEPRGPTIKPCPPCKCPAPNLLGGPSVFIFPPKIKDVLMISLSPIVTCVVVDVSEDDPDVQISWFVNNVEVHTAQTQTHREDYNSTLRVVSALPIQHQDWMSGKEFKCKVNNKDLPAPIERTISKPKGSVRAPQVYVLPPPEEEMTKKQVTLTCMVTDFMPEDIYVEWTNNGKTELNYKNTEPVLDSDGSYFMYSKLRVEKKNWVERNSYSCSVVHEGLHNHHTTKSFSRTPGK
B1 was tested, and the “stoichiometry N” value [3] was 2.

Source: article PMC8092395, “Development of Stable Chimeric IL-15 for Trans-Presentation by the Antigen Presenting Cells” (Frontiers in Immunology, 2021)
